Assay results taken from US20050037969A1 (ARBOR VITA, published 2005).
Ends that are not written are not given here. * marks the point of attachment. Biotin = O=C1N[C@H]2[C@H](CS[C@H]2CCCCC(=O)*)N1

B1: PAG C-terminal peptide AA58L, biotinylated (peptide)
peptide: Biotin-KENDYESISDLQQGRDITRL
notes: also called Phosphoprotein Associated with GEMs

Target: T1, GST-CASK PDZ domain fusion protein (Homo sapiens, UniProt O14936 486-575)
T1 construct: also called Homo sapiens CASK protein
T1 sequence: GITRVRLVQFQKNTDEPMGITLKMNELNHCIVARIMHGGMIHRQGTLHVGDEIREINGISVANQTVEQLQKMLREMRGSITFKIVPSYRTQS
Assay: A/G assays

Row | Binder | binding result
1 | Biotin-TTNNNPNSAVNIKKIFTDV [KV1.3 C-terminal peptide AA33L, biotinylated] | no binding
2 | B1 | no binding
3 | Biotin-PSWRRSSLSESENATSLTTF (also called CXCR5) [BLR-1 C-terminal peptide AA45L, biotinylated] | no binding
4 | Biotin-ARKANMKGSYSLVEAQKSKV (also called CD106) [VCAM1 C-terminal peptide AA17L, biotinylated] | no binding
5 | Biotin-LASKSAEEGKQIPDSLSTDL [DOCK2 C-terminal peptide AA40L, biotinylated] | no binding
6 | Biotin-QATSENGHSARQHVVADTEL [CD34 C-terminal peptide AA7L, biotinylated] | no binding

Target: T2, GST-TAX-IP43 PDZ domain fusion protein (human, UniProt Q13884 109-180)
T2 construct: also called TAX43; not shown: glutathione S-transferase encoded by vector pGEX-3X (Pharmacia)
T2 sequence: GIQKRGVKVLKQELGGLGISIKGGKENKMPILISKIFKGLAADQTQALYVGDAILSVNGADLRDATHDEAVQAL
Assay: A/G assays

Row | Binder | binding result
7 | Biotin-TTNNNPNSAVNIKKIFTDV [KV1.3 C-terminal peptide AA33L, biotinylated] | no binding
8 | B1 | no binding
9 | Biotin-PSWRRSSLSESENATSLTTF (also called CXCR5) [BLR-1 C-terminal peptide AA45L, biotinylated] | no binding
10 | Biotin-ARKANMKGSYSLVEAQKSKV (also called CD106) [VCAM1 C-terminal peptide AA17L, biotinylated] | no binding
11 | Biotin-LASKSAEEGKQIPDSLSTDL [DOCK2 C-terminal peptide AA40L, biotinylated] | no binding
12 | Biotin-QATSENGHSARQHVVADTEL [CD34 C-terminal peptide AA7L, biotinylated] | no binding

Target: T3, GST-PDZK1 fusion protein (PDZ domains 2-4) (Homo sapiens, UniProt Q5T2W1 134-457)
T3 construct: not shown: glutathione S-transferase encoded by vector pGEX-3X (Pharmacia)
T3 sequence: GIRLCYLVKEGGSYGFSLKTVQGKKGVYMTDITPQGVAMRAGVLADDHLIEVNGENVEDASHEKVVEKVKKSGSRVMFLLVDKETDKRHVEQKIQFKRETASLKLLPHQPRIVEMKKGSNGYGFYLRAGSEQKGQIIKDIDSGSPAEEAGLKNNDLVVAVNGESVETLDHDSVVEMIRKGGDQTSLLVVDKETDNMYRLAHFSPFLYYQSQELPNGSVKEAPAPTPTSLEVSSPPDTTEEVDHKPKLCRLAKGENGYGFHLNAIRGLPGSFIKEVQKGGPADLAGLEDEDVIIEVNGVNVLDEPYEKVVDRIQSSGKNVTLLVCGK
Assay: A/G assays

Row | Binder | binding result
13 | Biotin-TTNNNPNSAVNIKKIFTDV [KV1.3 C-terminal peptide AA33L, biotinylated] | no binding
14 | B1 | no binding
15 | Biotin-ARKANMKGSYSLVEAQKSKV (also called CD106) [VCAM1 C-terminal peptide AA17L, biotinylated] | no binding
16 | Biotin-LASKSAEEGKQIPDSLSTDL [DOCK2 C-terminal peptide AA40L, biotinylated] | no binding
17 | Biotin-QATSENGHSARQHVVADTEL [CD34 C-terminal peptide AA7L, biotinylated] | no binding

Target: T4, GST-DLG5 (p-dlg) PDZ domain fusion protein (Human, UniProt Q8TDM6 1343-1583)
T4 construct: also called Human discs large protein p-dlg; not shown: glutathione S-transferase encoded by vector pGEX-3X (Pharmacia)
T4 sequence: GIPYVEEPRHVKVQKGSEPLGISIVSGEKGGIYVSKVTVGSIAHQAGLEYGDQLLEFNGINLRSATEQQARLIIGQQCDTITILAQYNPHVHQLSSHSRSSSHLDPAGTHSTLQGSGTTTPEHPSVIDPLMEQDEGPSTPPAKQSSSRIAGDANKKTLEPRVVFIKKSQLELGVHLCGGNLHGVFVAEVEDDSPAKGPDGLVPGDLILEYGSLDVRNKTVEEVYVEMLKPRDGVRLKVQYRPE
Assay: A/G assays

Row | Binder | binding result
18 | Biotin-TTNNNPNSAVNIKKIFTDV [KV1.3 C-terminal peptide AA33L, biotinylated] | no binding
19 | B1 | no binding
20 | Biotin-PSWRRSSLSESENATSLTTF (also called CXCR5) [BLR-1 C-terminal peptide AA45L, biotinylated] | no binding
21 | Biotin-ARKANMKGSYSLVEAQKSKV (also called CD106) [VCAM1 C-terminal peptide AA17L, biotinylated] | no binding
22 | Biotin-LASKSAEEGKQIPDSLSTDL [DOCK2 C-terminal peptide AA40L, biotinylated] | no binding
23 | Biotin-QATSENGHSARQHVVADTEL [CD34 C-terminal peptide AA7L, biotinylated] | no binding

Target: T5, GST-mouse syntenin fusion protein (Mus musculus, UniProt O08992 108-286)
T5 construct: also called Mus musculus Syntenin; not shown: glutathione S-transferase encoded by vector pGEX-3X (Pharmacia)
T5 chain: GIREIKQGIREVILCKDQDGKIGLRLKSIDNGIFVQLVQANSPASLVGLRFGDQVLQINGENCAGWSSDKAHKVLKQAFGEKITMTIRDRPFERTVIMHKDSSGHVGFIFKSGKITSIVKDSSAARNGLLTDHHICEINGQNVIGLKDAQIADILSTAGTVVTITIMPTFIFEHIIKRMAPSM
Assay: A/G assays

Row | Binder | binding result
24 | Biotin-TTNNNPNSAVNIKKIFTDV [KV1.3 C-terminal peptide AA33L, biotinylated] | no binding
25 | B1 | no binding
26 | Biotin-PSWRRSSLSESENATSLTTF (also called CXCR5) [BLR-1 C-terminal peptide AA45L, biotinylated] | no binding
27 | Biotin-ARKANMKGSYSLVEAQKSKV (also called CD106) [VCAM1 C-terminal peptide AA17L, biotinylated] | no binding
28 | Biotin-LASKSAEEGKQIPDSLSTDL [DOCK2 C-terminal peptide AA40L, biotinylated] | no binding
29 | Biotin-QATSENGHSARQHVVADTEL [CD34 C-terminal peptide AA7L, biotinylated] | no binding

Target: T6, GST-DVL1 PDZ domain fusion protein (human, UniProt O14640 247-339)
T6 construct: also called human dishevelled segment polarity protein homolog; not shown: glutathione S-transferase encoded by vector pGEX-3X (Pharmacia)
T6 sequence: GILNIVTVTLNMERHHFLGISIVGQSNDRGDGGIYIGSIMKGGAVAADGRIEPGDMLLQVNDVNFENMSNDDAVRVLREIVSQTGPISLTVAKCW
Assay: A/G assays

Row | Binder | binding result
30 | B1 | no binding
31 | Biotin-PSWRRSSLSESENATSLTTF (also called CXCR5) [BLR-1 C-terminal peptide AA45L, biotinylated] | no binding
32 | Biotin-ARKANMKGSYSLVEAQKSKV (also called CD106) [VCAM1 C-terminal peptide AA17L, biotinylated] | no binding
33 | Biotin-LASKSAEEGKQIPDSLSTDL [DOCK2 C-terminal peptide AA40L, biotinylated] | no binding
34 | Biotin-QATSENGHSARQHVVADTEL [CD34 C-terminal peptide AA7L, biotinylated] | no binding

Target: T7, X11β PDZ-GST fusion protein (Rattus norvegicus (Rat), UniProt O35431 560-745)
T7 construct: Order of GST and PDZ part and limits not seen in the excerpts
T7 chain: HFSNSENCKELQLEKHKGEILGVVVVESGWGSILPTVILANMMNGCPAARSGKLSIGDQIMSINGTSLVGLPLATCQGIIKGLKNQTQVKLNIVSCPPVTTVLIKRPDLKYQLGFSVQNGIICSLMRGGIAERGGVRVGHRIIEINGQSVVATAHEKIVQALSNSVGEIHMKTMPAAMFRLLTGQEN
Assay: A/G assays

Row | Binder | binding result
35 | Biotin-TTNNNPNSAVNIKKIFTDV [KV1.3 C-terminal peptide AA33L, biotinylated] | no binding
36 | B1 | no binding
37 | Biotin-PSWRRSSLSESENATSLTTF (also called CXCR5) [BLR-1 C-terminal peptide AA45L, biotinylated] | no binding
38 | Biotin-ARKANMKGSYSLVEAQKSKV (also called CD106) [VCAM1 C-terminal peptide AA17L, biotinylated] | no binding
39 | Biotin-LASKSAEEGKQIPDSLSTDL [DOCK2 C-terminal peptide AA40L, biotinylated] | no binding
40 | Biotin-QATSENGHSARQHVVADTEL [CD34 C-terminal peptide AA7L, biotinylated] | no binding

Target: T8, TAX-IP2L PDZ-GST fusion protein (Homo sapiens (Human), UniProt Q8TF64 107-197)
T8 construct: Order of GST and PDZ part and limits not seen in the excerpts
T8 sequence: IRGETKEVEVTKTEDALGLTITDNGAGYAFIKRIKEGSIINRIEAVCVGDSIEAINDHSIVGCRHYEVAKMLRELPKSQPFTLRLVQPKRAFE
Assay: A/G assays

Row | Binder | binding result
41 | Biotin-TTNNNPNSAVNIKKIFTDV [KV1.3 C-terminal peptide AA33L, biotinylated] | no binding
42 | B1 | no binding
43 | Biotin-PSWRRSSLSESENATSLTTF (also called CXCR5) [BLR-1 C-terminal peptide AA45L, biotinylated] | no binding
44 | Biotin-ARKANMKGSYSLVEAQKSKV (also called CD106) [VCAM1 C-terminal peptide AA17L, biotinylated] | no binding
45 | Biotin-LASKSAEEGKQIPDSLSTDL [DOCK2 C-terminal peptide AA40L, biotinylated] | no binding
46 | Biotin-QATSENGHSARQHVVADTEL [CD34 C-terminal peptide AA7L, biotinylated] | no binding

Target: T9, TAX-IP33 PDZ-GST fusion protein (Homo sapiens (Human), UniProt O14910 103-193)
T9 construct: Order of GST and PDZ part and limits not seen in the excerpts
T9 sequence: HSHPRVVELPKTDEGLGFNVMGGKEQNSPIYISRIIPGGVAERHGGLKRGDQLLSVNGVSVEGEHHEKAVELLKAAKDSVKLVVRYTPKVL
Assay: A/G assays

Row | Binder | binding result
47 | Biotin-TTNNNPNSAVNIKKIFTDV [KV1.3 C-terminal peptide AA33L, biotinylated] | no binding
48 | B1 | no binding
49 | Biotin-PSWRRSSLSESENATSLTTF (also called CXCR5) [BLR-1 C-terminal peptide AA45L, biotinylated] | no binding
50 | Biotin-ARKANMKGSYSLVEAQKSKV (also called CD106) [VCAM1 C-terminal peptide AA17L, biotinylated] | no binding
51 | Biotin-LASKSAEEGKQIPDSLSTDL [DOCK2 C-terminal peptide AA40L, biotinylated] | no binding
52 | Biotin-QATSENGHSARQHVVADTEL [CD34 C-terminal peptide AA7L, biotinylated] | no binding

Target: T10, MINT3 PDZ-GST fusion protein
T10 construct: Order of GST and PDZ part and limits not seen in the excerpts
T10 chain: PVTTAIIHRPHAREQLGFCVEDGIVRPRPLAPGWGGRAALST
Assay: A/G assays

Row | Binder | binding result
53 | Biotin-TTNNNPNSAVNIKKIFTDV [KV1.3 C-terminal peptide AA33L, biotinylated] | no binding
54 | B1 | no binding
55 | Biotin-PSWRRSSLSESENATSLTTF (also called CXCR5) [BLR-1 C-terminal peptide AA45L, biotinylated] | no binding
56 | Biotin-ARKANMKGSYSLVEAQKSKV (also called CD106) [VCAM1 C-terminal peptide AA17L, biotinylated] | no binding
57 | Biotin-LASKSAEEGKQIPDSLSTDL [DOCK2 C-terminal peptide AA40L, biotinylated] | no binding
58 | Biotin-QATSENGHSARQHVVADTEL [CD34 C-terminal peptide AA7L, biotinylated] | no binding

Target: T11, K559 PDZ-GST fusion protein (Homo sapiens (Human), UniProt Q9Y6V0 4489-4593)
T11 construct: Order of GST and PDZ part and limits not seen in the excerpts
T11 sequence: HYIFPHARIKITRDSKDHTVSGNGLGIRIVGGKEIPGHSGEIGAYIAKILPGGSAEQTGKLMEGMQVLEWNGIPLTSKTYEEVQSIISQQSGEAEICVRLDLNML
Assay: A/G assays

Row | Binder | binding result
59 | Biotin-TTNNNPNSAVNIKKIFTDV [KV1.3 C-terminal peptide AA33L, biotinylated] | no binding
60 | B1 | no binding
61 | Biotin-PSWRRSSLSESENATSLTTF (also called CXCR5) [BLR-1 C-terminal peptide AA45L, biotinylated] | no binding
62 | Biotin-ARKANMKGSYSLVEAQKSKV (also called CD106) [VCAM1 C-terminal peptide AA17L, biotinylated] | no binding
63 | Biotin-LASKSAEEGKQIPDSLSTDL [DOCK2 C-terminal peptide AA40L, biotinylated] | no binding
64 | Biotin-QATSENGHSARQHVVADTEL [CD34 C-terminal peptide AA7L, biotinylated] | no binding

Target: T12, K316 PDZ-GST fusion protein (Homo sapiens (Human), UniProt Q14CM0 72-159)
T12 construct: Order of GST and PDZ part and limits not seen in the excerpts
T12 sequence (Q14CM0 72-159 limits assumed): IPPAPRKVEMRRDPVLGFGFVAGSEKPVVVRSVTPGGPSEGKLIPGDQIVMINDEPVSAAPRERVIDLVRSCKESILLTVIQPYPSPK
Assay: A/G assays

Row | Binder | binding result
65 | Biotin-TTNNNPNSAVNIKKIFTDV [KV1.3 C-terminal peptide AA33L, biotinylated] | no binding
66 | Biotin-PSWRRSSLSESENATSLTTF (also called CXCR5) [BLR-1 C-terminal peptide AA45L, biotinylated] | no binding
67 | Biotin-ARKANMKGSYSLVEAQKSKV (also called CD106) [VCAM1 C-terminal peptide AA17L, biotinylated] | no binding
68 | Biotin-LASKSAEEGKQIPDSLSTDL [DOCK2 C-terminal peptide AA40L, biotinylated] | no binding
69 | Biotin-QATSENGHSARQHVVADTEL [CD34 C-terminal peptide AA7L, biotinylated] | no binding
